In experiment [1] the target is human CCR8 (human) (UniProt P51685). As to the kind of experiment: cell-based or functional assay.
Experiment [2] shares this target. As to the kind of experiment: flow cytometry on lymphocytes from ovarian cancer ascites, 1 µg antibody.
Experiment [3] shares this target. As to the kind of experiment: flow cytometry on lymphocytes from ovarian cancer ascites, 0.1 µg antibody.
Experiment [4] shares this target. As to the kind of experiment: flow cytometry on lymphocytes from ovarian cancer ascites, 0.5 µg antibody.
For experiment [5] the target is unchanged. As to the kind of experiment: flow cytometry, hCCR8-transfected CHO-K1 cells.

As for “human CCL1 (from UniProt P22362 24-96) (ligand)”, in experiment [1], the EC80 of hCCL1, hCCR8 Gi2 BRET, HEK-293 in suspension came out at 6 nM and the EC80 of hCCL1, hCCR8 Gi2 BRET, adherent HEK-293 (protocol #4) is 0.6 nM.

Turning to Isotype ctrl (antibody), the Positive cells in experiment [2] came out at 5.06%; in experiment [3], 2.94%; in experiment [4] it was 3.81%.

In experiment [5], “murine anti-human CCR8 monoclonal antibody L263G8” had a % positive cells of 86.5%. The MFI fold change to isotype ctrl in experiment [5] turned out to be 19.8 fold. Moreover, the Positive cells in experiment [2] was 8.64%; in experiment [3] it was 9.5%; in experiment [4], 9.86%.

(Values after patent publication US20260132208A1.)
